This is an account of results in paper PMC9330781, “Isolated Variable Domains of an Antibody Can Assemble on Blood Coagulation Factor VIII into a Functional Fv-like Complex” (International Journal of Molecular Sciences, 2022).

B1: Recombinant B-domain deleted FVIII (BDD) (natural protein, human, UniProt P00451 20-2351, looked up)
chain 1: ATRRYYLGAVELSWDYMQSDLGELPVDARFPPRVPKSFPFNTSVVYKKTLFVEFTDHLFNIAKPRPPWMGLLGPTIQAEVYDTVVITLKNMASHPVSLHAVGVSYWKASEGAEYDDQTSQREKEDDKVFPGGSHTYVWQVLKENGPMASDPLCLTYSYLSHVDLVKDLNSGLIGALLVCREGSLAKEKTQTLHKFILLFAVFDEGKSWHSETKNSLMQDRDAASARAWPKMHTVNGYVNRSLPGLIGCHRKSVYWHVIGMGTTPEVHSIFLEGHTFLVRNHRQASLEISPITFLTAQTLLMDLGQFLLFCHISSHQHDGMEAYVKVDSCPEEPQLRMKNNEEAEDYDDDLTDSEMDVVRFDDDNSPSFIQIRSVAKKHPKTWVHYIAAEEEDWDYAPLVLAPDDRSYKSQYLNNGPQRIGRKYKKVRFMAYTDETFKTREAIQHESGILGPLLYGEVGDTLLIIFKNQASRPYNIYPHGITDVRPLYSRRLPKGVKHLKDFPILPGEIFKYKWTVTVEDGPTKSDPRCLTRYYSSFVNMERDLASGLIGPLLICYKESVDQRGNQIMSDKRNVILFSVFDENRSWYLTENIQRFLPNPAGVQLEDPEFQASNIMHSINGYVFDSLQLSVCLHEVAYWYILSIGAQTDFLSVFFSGYTFKHKMVYEDTLTLFPFSGETVFMSMENPGLWILGCHNSDFRNRGMTALLKVSSCDKNTGDYYEDSYEDISAYLLSKNNAIEPR
chain 2: EITRTTLQSDQEEIDYDDTISVEMKKEDFDIYDEDENQSPRSFQKKTRHYFIAAVERLWDYGMSSSPHVLRNRAQSGSVPQFKKVVFQEFTDGSFTQPLYRGELNEHLGLLGPYIRAEVEDNIMVTFRNQASRPYSFYSSLISYEEDQRQGAEPRKNFVKPNETKTYFWKVQHHMAPTKDEFDCKAWAYFSDVDLEKDVHSGLIGPLLVCHTNTLNPAHGRQVTVQEFALFFTIFDETKSWYFTENMERNCRAPCNIQMEDPTFKENYRFHAINGYIMDTLPGLVMAQDQRIRWYLLSMGSNENIHSIHFSGHVFTVRKKEEYKMALYNLYPGVFETVEMLPSKAGIWRVECLIGEHLHAGMSTLFLVYSNKCQTPLGMASGHIRDFQITASGQYGQWAPKLARLHYSGSINAWSTKEPFSWIKVDLLAPMIIHGIKTQGARQKFSSLYISQFIIMYSLDGKKWQTYRGNSTGTLMVFFGNVDSSGIKHNIFNPPIIARYIRLHPTHYSIRSTLRMELMGCDLNSCSMPLGMESKAISDAQITASSYFTNMFATWSPSKARLHLQGRSNAWRPQVNNPKEWLQVDFQKTMKVTGVTTQGVKSLLTSMYVKEFLISSSQDGHQWTLFFQNGKVKVFQGNQDSFTPVVNSLDPPLLTRYLRIHPQSWVHQIALRMEVLGCEAQDLY
notes: coagulation factor VIII, human, B-domain deleted; also called BDD FVIII; source: bought: FVIII pharmaceutical product, ASD Healthcare, AmerisourceBergen
B2: scFv iKM33-v1 (thrombin-cleavable variant of iKM33) (scFv, V domains shown)
VH: EVQLVESGGGVVQPGRSLRLSCVDSGLTFSSYGMHWVRQAPGAGLEWVAVISYDGNDKYYADSVKGRFAISRDNAKNTLYLQMNSLTIEDTAVYYCAKDLIESNIAEAFWGQGTLVTVSS
VL: DIQMTQSPSSLSASVGDTVTIACRASRDIRNDLAWYQQKPGKAPKLLIYATSRLQSGVPSRFSGSGSFTDFTLTINSLQPDDSATYYCLQDSDYPLTFGGGTKVDIK
notes: as the VH of m1; linker with a thrombin cleavage site made after the FVIII Arg740 site, 15 or 17 residues long; as the VL of m1; Differs from m1 only in the linker; also called intact scFv; source: Sf9 cells, baculovirus, purified from conditioned media (HisTrap Excel, Superdex 75)
B3: scFv iKM33-v2 (thrombin-cleavable variant of iKM33) (scFv, V domains shown)
VH: B2 VH
VL: B2 VL
notes: as the VH of m1; linker with a thrombin cleavage site made after the FVIII Arg740 site, 15 or 17 residues long; as the VL of m1; Differs from m1 only in the linker; also called non-cleaved scFv; source: Sf9 cells, baculovirus, purified from conditioned media (HisTrap Excel, Superdex 75)
B4: scFv iKM33-v3 (thrombin-cleavable variant of iKM33) (scFv, V domains shown)
VH: B2 VH
VL: B2 VL
notes: as the VH of m1; linker with a thrombin cleavage site made after the FVIII Arg372 site; as the VL of m1; Differs from m1 only in the linker; source: Sf9 cells, baculovirus, purified from conditioned media (HisTrap Excel, Superdex 75)

What all share (conditions): both partners purified
Assay [1] deals with T1, Isolated VH subunit of thrombin-cleaved iKM33-v1.
T1 construct: as the VH of m2; the stretch of the linker of m2 that stays on VH after thrombin cleavage; About 13 kDa; source: thrombin cleavage of the purified scFv (Sf9); supernatant after Ni-NTA agarose, buffer exchanged and concentrated
Description: pull-down; FVIII (BDD, ~2 µg) incubated with the scFv or its fragments (1- to 5-fold molar excess) in HBS-P/Ca buffer for 1 h at room temperature, captured on VIIISelect (FVIII-affinity) resin, washed, eluted, SDS-PAGE with silver staining.

For assay [2], the target named is T2, Recombinant blood coagulation factor VIII (human).
T2 construct: coagulation factor VIII, human, heavy chain with the domain structure A1-A2-B; coagulation factor VIII, human, light chain with the domain structure A3-C1-C2; Written here as one chain entry with two parts would be wrong: see the two pieces as heavy chain and light chain of the heterodimer; also called FVIII; source: bought: FVIII pharmaceutical product, ASD Healthcare, AmerisourceBergen
The assay can be described thus: SPR; each scFv variant covalently immobilised (amine coupling, CM5, 250-350 RU); FVIII injected at 3.125, 12.5, 50 and 200 nM; 10 mM HEPES, 150 mM NaCl, 5 mM CaCl2, 0.005% Polysorbate-20; 25 °C; 1:1 (Langmuir) binding model; Biacore T200.

Assay [3] addresses B1. The assay can be described thus: pull-down; FVIII (BDD, ~2 µg) incubated with the scFv or its fragments (1- to 5-fold molar excess) in HBS-P/Ca buffer for 1 h at room temperature, captured on VIIISelect (FVIII-affinity) resin, washed, eluted, SDS-PAGE with silver staining.

Turning to B1, the binding result in assay [1] was “binds”.
On to B2, for which the binding result in assay [2] and in assay [3] was “binds” in each case.
In the case of B3, the binding result in assay [2] is listed as “binds”.
The same measure, in the same setting: in the case of B4 it was “binds”.
